2 molecules from article PMC10619491, “SET7/9-mediated methylation affects oncogenic functions of histone demethylase JMJD2A” (JCI Insight, 2023) can be followed below.

Ends that are not written are not given here.

The assay deals with T1, GST–ETV1(249–477) fusion protein (UniProt P50549 249-477).
T1 construct: ETV1, C-terminal half, residues 249-477; In the MST it was labelled through an anti-GST mouse mAb coupled to Alexa Fluor 647; also called fusion between GST and the C-terminal half of ETV1 (aa 249–477); source: E. coli, purified
T1 sequence (looked up): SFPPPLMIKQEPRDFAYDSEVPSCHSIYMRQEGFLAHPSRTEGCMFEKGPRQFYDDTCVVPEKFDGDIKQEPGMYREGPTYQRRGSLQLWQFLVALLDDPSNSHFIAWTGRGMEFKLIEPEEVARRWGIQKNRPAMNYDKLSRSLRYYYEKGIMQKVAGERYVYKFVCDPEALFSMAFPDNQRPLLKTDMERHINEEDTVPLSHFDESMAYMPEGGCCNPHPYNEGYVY
Kind of assay: MST; Monolith NT.115; 15 serial dilutions of peptide (starting concentration 50 μM) against 300 nM GST–ETV1(249–477) with 20 nM anti-GST mouse mAb coupled to Alexa Fluor 647; PBS with 0.05% Tween-20. Particulars: both partners purified.

B1: triple methylated (on K505, K506, and K507; 3xme) peptide spanning JMJD2A aa 490–522 (peptide, UniProt O75164 490-522, looked up)
peptide: VNPASVGGRLVFSGSK(Me)K(Me)K(Me)SSSSLGSGSSRDSIS-NH2
modifications: N-terminus assumed
SMILES: CC[C@H](C)[C@H](NC(=O)[C@H](CO)NC(=O)[C@H](CC(=O)O)NC(=O)[C@H](CCCNC(=N)N)NC(=O)[C@H](CO)NC(=O)[C@H](CO)NC(=O)CNC(=O)[C@H](CO)NC(=O)CNC(=O)[C@H](CC(C)C)NC(=O)[C@H](CO)NC(=O)[C@H](CO)NC(=O)[C@H](CO)NC(=O)[C@H](CO)NC(=O)[C@H](CCCCNC)NC(=O)[C@H](CCCCNC)NC(=O)[C@H](CCCCNC)NC(=O)[C@H](CO)NC(=O)CNC(=O)[C@H](CO)NC(=O)[C@H](Cc1ccccc1)NC(=O)[C@@H](NC(=O)[C@H](CC(C)C)NC(=O)[C@H](CCCNC(=N)N)NC(=O)CNC(=O)CNC(=O)[C@@H](NC(=O)[C@H](CO)NC(=O)[C@H](C)NC(=O)[C@@H]1CCCN1C(=O)[C@H](CC(N)=O)NC(=O)[C@@H](N)C(C)C)C(C)C)C(C)C)C(=O)N[C@@H](CO)C(N)=O
notes: JMJD2A/KDM4A, human, residues 490-522; source: synthetic peptide (GenScript)
Turning to B1, the affinity, expressed as Kd, was 8.7 µM.

B2: unmethylated (WT) peptide spanning JMJD2A aa 490–522 (peptide, UniProt O75164 490-522, looked up)
peptide: VNPASVGGRLVFSGSKKKSSSSLGSGSSRDSIS-NH2
notes: JMJD2A/KDM4A, human, residues 490-522; also called JMJD2A aa 490–522 peptide; source: synthetic peptide (GenScript)
With B2, the Kd – broadly, a measure of binding affinity in units of concentration – was determined as 25.4 µM.
